Measured values taken from paper PMC6780499, “Characterization, Recombinant Production and Structure-Function Analysis of NvCI, A Picomolar Metallocarboxypeptidase Inhibitor from the Marine Snail Nerita versicolor” (Marine Drugs, 2019).
No end group written: not given here.

What was measured:
[1] = molecular target: T1, hCPA4 (Homo sapiens, UniProt Q9UI42); test: Ki determination, tight-binding inhibition of metallocarboxypeptidase; format: biochemical; conditions: tight-binding equation fit, equilibrium conditions; substrate AAFP 0.1mM, 20mM Tris-HCl pH 7.5, 500mM NaCl; preincubation 15 min; 37 °C; means (n = 3) ± SD
T1 sequence (Q9UI42 114-421): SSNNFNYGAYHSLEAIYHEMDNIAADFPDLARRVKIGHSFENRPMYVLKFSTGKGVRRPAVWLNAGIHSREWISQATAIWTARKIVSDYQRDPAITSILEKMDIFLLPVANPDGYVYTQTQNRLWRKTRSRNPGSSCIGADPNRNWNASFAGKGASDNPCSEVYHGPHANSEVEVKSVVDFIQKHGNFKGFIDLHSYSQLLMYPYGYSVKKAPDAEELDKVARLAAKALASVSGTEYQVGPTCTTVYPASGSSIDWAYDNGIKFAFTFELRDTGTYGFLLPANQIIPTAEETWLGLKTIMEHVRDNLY
Procedure: (§1) Inhibitory activities against CPA- and CPB-type forms (bovine and human variants of CPA1, CPA2, CPA4, CPB1, and TAFI) were assayed for all extracts, subject to the experimental conditions that enzyme (E), substrate (S) and inhibitor (I) concentrations as well as the [I]/[E] ratio and preincubation time followed the requirements for tight-binding inhibitor assays. Similar approaches were followed to measure the activities of proteases of different catalytic types, like pepsin, papain, trypsin and subtilisin [45, 46, 47, 48]. All assays were performed in triplicate at 25 °C in a multiplexed manner. For 96-well assays an iEMS spectrophotometer reader/dispenser FM (Labsystems, Finland) was used with a final reaction volume of 250 μL. For cuvette assays, a Cary 400 Bio spectrophotometer (Varian Inc., Palo Alto, CA, USA) spectrophotometer was used with a final reaction volume of 1 ml. The reactions were followed at 5 s intervals for 5 min and recorded as initial velocities. In the protease inhibition assays, mixtures of activity buffer, biological sample and enzyme were preincubated at 25 °C for 10min, before substrate addition. The assay conditions were as follows: for CPA-like enzymes, 7.0nM CPA, 0.1mM AAFP substrate in 20mM Tris-HCl pH 7.5, 500mMNaCl, 1% v/v dimethyl sulfoxide (DMSO), 0.05% w/v BRIJ-35 was used. For CPB-like enzymes, CPB 3.0nM CPB, 0.1mM AAFA substrate and activity buffer of 20 mM Tris-HCl pH [50].
(§2) The Ki values of natural and recombinant NvCI against bCPA1, hCPA1, hCPA2, rat CPA3, hCPA4, hCPB1, bTAFI, hTAFI, hCPD and hCPZ were determined by measuring the enzymatic residual activity (Vi/V0 = a) at different inhibitor concentrations and using a fixed enzyme and substrate concentrations as described above, where vi and v0 are the fraction of enzymatic activity in the presence and absence of inhibitor, respectively, in terms of initial velocities. The determination of Ki values was carried out on equilibrium conditions ([E0]/Ki ≤ 10), using a previously determined preincubation time of 15 min, required to establish enzyme-inhibitor equilibrium. Working temperature was 37 °C. The best estimates of Ki values were obtained by fitting the experimental data to the equation for tight-binding inhibitors by non-linear regression using the GraphPad Prisma 5 software (GraphPad Software, Inc., San Diego, CA, USA) at p < 0.05. The real Ki values against each of these A/B-type MCPs were calculated according to the equation described by Morrison and Copeland [19, 20].

[2] = molecular target: T2, pCPB (Sus scrofa, UniProt P09955); test: as above; format: biochemical; conditions: tight-binding equation fit, equilibrium conditions; substrate AAFA 0.1mM; preincubation 15 min; 37 °C; means (n = 3) ± SD
T2 sequence (P09955 111-416): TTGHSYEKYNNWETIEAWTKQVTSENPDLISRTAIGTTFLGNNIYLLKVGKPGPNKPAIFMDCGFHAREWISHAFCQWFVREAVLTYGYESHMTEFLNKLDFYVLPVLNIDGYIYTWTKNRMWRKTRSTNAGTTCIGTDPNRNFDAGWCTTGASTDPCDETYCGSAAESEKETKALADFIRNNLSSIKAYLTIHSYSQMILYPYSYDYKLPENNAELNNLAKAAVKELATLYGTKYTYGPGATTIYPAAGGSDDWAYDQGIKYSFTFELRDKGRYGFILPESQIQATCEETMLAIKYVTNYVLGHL
Procedure: as §1, §2

Ki [1]: 9.7 ± 1 pM
Ki [2]: 650 ± 12.2 pM
Substance: NvCI: 53-residue, three-disulphide proteinaceous metallocarboxypeptidase inhibitor from the marine snail Nerita versicolor; major isoform; UniProt P86912 (FHVPDDRPCINPGRCPLVPDATCTFVCKAADNDFGYECQHVWTFEGQRVGCYA; disulfide (positions not given here); also: three disulphides, pairing not given here; UniProt P86912 1-53, looked up)
